Assay results reported in patent publication US20030228627.

Target: Full-length human Flag-tagged p53 (native, unacetylated) (UniProt P04637)

Question: How did the “acetylation of p53 by p300 in the presence of 3H-acetyl CoA (electrophoresis, fluorography)” value turn out when Full-length human histidine-tagged p300 was run?
Answer: p300 efficiently acetylated p53
